Measurements from US8372810B2, “Anti-tumor drug, medicament, composition, and use thereof” (Gene Signal International SA, priority 2007, dated 2013).
“Also recorded” adds a separate entry of the source.

What was measured:
NCI H460 human tumor = NCI H460 human tumor xenograft in Swiss Nude mice, tumor growth; assay type: in vivo; parameters: key to MRTV D28 / MRTV D12 / MRTV D14 / MRTV D16 / MRTV D18 / MRTV D20 / MRTV D22 / MRTV D24 / MRTV D26: ratio of mean tumor volume at day t to volume at injection (D12); details: for MRTV D12: reference day
Description: NCI H460 cells were cultured as adherent cells in complete RPMI 1640 medium (Ref. CM1RRM08-01, batch No. 623615, Eurobio, France) containing 2 mM L-Glutamine, adjusted to 4.5 g/L glucose (Ref. G7528, batch No. 033K0121, Sigma, France) and supplemented with 10 mM HEPES (Ref. H0887, batch No. 113K2338, Sigma, France), 1.0 mM sodium pyruvate (Ref. CSTVAT00-0U, batch No. 520818, Sigma, France) and 10% fetal calf serum (FCS; Ref. CVFSVF00-01, batch No. S13021, Eurobio, France) under a 37° C., 5% CO2 humidified atmosphere. They were amplified in 75 cm^2-flasks to reach 90×10^6 cells.
At D0, NCI H460 cells (human lung carcinoma) were collected from 75 cm^2-flasks by removing the medium and adding 3 ml of trypsine-EDTA (Ref. CEZTDA00-0U, batch No. 633920, Eurobio, France). After 5 min of incubation at 37° C., cells were detached from the plastic and the enzymatic reaction was stopped by adding 3 ml of RPMI 1640 medium containing 10% fetal calf serum. Cells were then centrifuged at 700 g for 5 min at room temperature. They were resuspended in serum-free RPMI 1640 culture medium containing L-Glutamine (2 mM), glucose (4.5 g/l), sodium pyruvate (1 mM) and buffered with HEPES (10 mM). Cells were counted and the number of viable NCI H460 cells was >99%. The number of cells was then adjusted to 25.10^6 cells/ml in serum-free medium.
NCI H460 cells (5.10^6 cells/mouse in 200 μL of serum-free medium) were then implanted subcutaneously in the right flank of each mouse.
At D12 post-implantation of the NCI H460 cells, the thirty mice were randomized into six groups of 5 mice. Tumor volumes had reached 228 to 468 mm^3 and mean tumor volumes were not statistically different between groups after randomization.
All solutions were injected IP.
Animals have been observed daily.
• Tumor growth curves were drawn using the mean tumor volumes (MTV), • Mean Relative tumor volume (MRTV) was calculated as the ratio between the MTV at time t and the volume at the time of injection (t=D12), • Tumor growth inhibition (T/C, %) was evaluated as the ratio of the median tumor volumes of treated groups versus vehicle group.
Statistical analyses of tumor volumes (V), time to reach ‘V’, tumor-doubling time (DT), relative tumor volume (RTV) and tumor growth inhibition (T/C) were performed for all groups. Data are expressed as mean±SD. Groups of data were normally distributed. Univariate analysis were performed to assess differences between groups. Statistical significance was then determined using the Student's t test. A P<0.05 was considered as statistically significant. The Statistical analysis was performed using XLSTAT (Addinsoft, France).

[1] = Body weight and toxicity monitoring of mice bearing CALU-6 tumors; details: CALU-6 bearing Nude mice, 497C-T2 10 mg/kg IP
Description: Injections in groups 1, 2, 3 and 4 were performed according to the schedules Q2DX8, i.e. 1 quantity every two days, eight times.
CDDP was resuspended in sterile physiological serum at a concentration of 0.5 mg/mL and injected IP at a concentration of 5 mg/kg at a volume of 10 mL/kg, according to the treatment schedule Q2DX8.
Ketamine/Xylazine (80 mg/kg-12 mg/kg; Ref. K-113, Sigma, France) was used to anaesthetize the animals before sacrifice by cervical dislocation.

[2] = 497C-T2 10 mg/kg IP Q1DX16 (G4)
[3] = 497C-T2 10 mg/kg IP Q1DX16 (G4), 10 mg/kg
[4] = 497C-T2 10 mg/kg IP Q1DX16 (G4), listed as 497C-T2-Batch A
[5] = 497C-T2 10 mg/kg IP once daily Q1DX16 (G4)
[6] = IP Q2DX8, CDDP 5 mg/kg (G2), 497C-T2 10 mg/kg (G3), 497C-T2 10 mg/kg + CDDP 5 mg/kg (G5)
[7] = IP Q2DX8, CDDP 5 mg/kg (G2), 497C-T2 10 mg/kg (G3), 497C-T2 10 mg/kg + CDDP 5 mg/kg (G5), listed as 497C-T2-Batch A

B1: 497C-T2: entire LEL domain of protein 497C, SEQ ID NO:3 (112 amino acids); as produced SEQ ID NO:8, with N-terminal His-Tag and C-terminal tail, 24 kD (protein, listed as Homo sapiens)
chain: MHHHHHHSSGLVPRGSGMKETAAAKFERQHMDSPDLGTDDDDKISGFVFRHEIKDTFLRTYTDAMQTYNGNDERSRAVDHVQRSLSCCGVQNYTNWSTSPYFLEHGIPPSCCMNETDCNPQDLHNLTVAATKVNQKGCYDLVTSFMETNMGIIAGDRASPQPWRYRIRILAPSTSLRPHSSTTTTTTXIRLLTKPERKLSWLLPPLSNN
modifications: X: residue not identified in the source
- MTV at D14 (NCI H460 human tumor; [2]): 468.85 mm^3
- MTV at D24 (NCI H460 human tumor; [2]): 2289.22 mm^3
- T/C at D14 (treated/vehicle tumor volume ratio) (NCI H460 human tumor; [2]): 46.90%
- T/C at D24 (treated/vehicle tumor volume ratio) (NCI H460 human tumor; [2]): 71.04%
- DT (doubling time of tumor volume) (NCI H460 human tumor; [3]): 5.9 ± 1.21 days
- MTV at D28 (NCI H460 human tumor; [3]): 3167±1681 mm^3
- T/C at D28 (treated/vehicle tumor volume ratio) (NCI H460 human tumor; [3]): 71%
- DT (doubling time of tumor volume) (NCI H460 human tumor; [4]): 5.9 days
- MTV at D28 (NCI H460 human tumor; [4]): 3167.34 mm^3
- T/C at D28 (treated/vehicle tumor volume ratio) (NCI H460 human tumor; [4]): 71.32%
- MRTV D14 (NCI H460 human tumor; [5]): 1.08
- MRTV D16 (NCI H460 human tumor; [5]): 1.00
- MRTV D18 (NCI H460 human tumor; [5]): 1.69
- MRTV D20 (NCI H460 human tumor; [5]): 2.63
- MRTV D22 (NCI H460 human tumor; [5]): 3.08
- MRTV D24 (NCI H460 human tumor; [5]): 3.08
- MRTV D26 (NCI H460 human tumor; [5]): 4.89
- MRTV D28 (NCI H460 human tumor; [5]): 6.76
- DT (doubling time of tumor volume) (NCI H460 human tumor; [6]): 4.08 ± 1.4 days
- MRTV D14 (NCI H460 human tumor; [6]): 1.37
- MRTV D16 (NCI H460 human tumor; [6]): 1.70
- MRTV D18 (NCI H460 human tumor; [6]): 2.46
- MRTV D20 (NCI H460 human tumor; [6]): 2.81
- MRTV D22 (NCI H460 human tumor; [6]): 3.30
- MRTV D24 (NCI H460 human tumor; [6]): 3.22
- MRTV D26 (NCI H460 human tumor; [6]): 5.80
- MRTV D28 (NCI H460 human tumor; [6]): 7.37
- MTV at D14 (NCI H460 human tumor; [6]): 571.00 mm^3
- MTV at D24 (NCI H460 human tumor; [6]): 1955.02 mm^3
- MTV at D28 (NCI H460 human tumor; [6]): 2482±2075 mm^3
- T/C at D14 (treated/vehicle tumor volume ratio) (NCI H460 human tumor; [6]): 57.12%
- T/C at D24 (treated/vehicle tumor volume ratio) (NCI H460 human tumor; [6]): 60.67%
- T/C at D28 (treated/vehicle tumor volume ratio) (NCI H460 human tumor; [6]): 56%
- DT (doubling time of tumor volume) (NCI H460 human tumor; [7]): 4.08 days
- MTV at D28 (NCI H460 human tumor; [7]): 2481.61 mm^3
- T/C at D28 (treated/vehicle tumor volume ratio) (NCI H460 human tumor; [7]): 55.88%
- anti-tumoral activity (NCI H460 human tumor; NCI H460, monotherapy (G3, G4) or combined with CDDP (G5, G6)): moderate anti-tumoral activity
- MRTV D12 (NCI H460 human tumor; [5]): 1.00
- MRTV D12 (NCI H460 human tumor; [6]): 1.00
- toxicity during the course of the treatment [1]: No toxicity was observed; also recorded: not toxic
